Source: patent publication US5910570

Tests used:
[1] = target: T1, synthetic acceptor peptide Arg-Ser-Pro-Pro-Pro (RSPPP)
T1 sequence (peptide): RSPPP

[2] = target: synthetic acceptor peptide Pro-Pro-Ala-D-Ser-Thr-D-Ser-Ala-Pro-Gly (PPAdSTdSAPG)
[3] = target: T2, bovine rhodanese, native (bovine) (UniProt P00586)
T2 sequence: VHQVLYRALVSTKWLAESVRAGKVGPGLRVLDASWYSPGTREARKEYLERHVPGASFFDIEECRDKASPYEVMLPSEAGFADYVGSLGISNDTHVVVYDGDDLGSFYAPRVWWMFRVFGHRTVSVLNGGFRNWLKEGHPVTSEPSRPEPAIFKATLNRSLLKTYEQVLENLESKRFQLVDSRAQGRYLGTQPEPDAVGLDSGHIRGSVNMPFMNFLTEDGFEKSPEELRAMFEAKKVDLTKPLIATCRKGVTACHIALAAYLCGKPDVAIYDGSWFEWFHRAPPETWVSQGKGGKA

[4] = target: T3, subtilisin, reduced and carboxymethylated (Bacillus amyloliquefaciens (Bacillus velezensis)) (UniProt P00782)
T3 sequence (chain, reduced and carboxymethylated): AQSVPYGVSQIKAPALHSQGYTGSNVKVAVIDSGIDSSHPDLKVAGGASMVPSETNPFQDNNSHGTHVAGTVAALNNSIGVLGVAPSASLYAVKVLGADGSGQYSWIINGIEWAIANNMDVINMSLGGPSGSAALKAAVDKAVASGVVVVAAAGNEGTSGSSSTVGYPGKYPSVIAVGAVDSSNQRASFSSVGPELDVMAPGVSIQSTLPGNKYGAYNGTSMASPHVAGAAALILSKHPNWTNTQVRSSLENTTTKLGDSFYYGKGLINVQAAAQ

[5] = target: T4, subtilisin, native (Bacillus amyloliquefaciens (Bacillus velezensis)) (UniProt P00782)
T4 sequence: T3 sequence (chain, reduced and carboxymethylated)

[6] = target: bovine cytochrome C, reduced and carboxymethylated (bovine) (UniProt P62894)
[7] = target: bovine cytochrome C, native (bovine) (UniProt P62894)
[8] = target: T5, bovine rhodanese, reduced and carboxymethylated (bovine) (UniProt P00586)
T5 sequence (chain, reduced and carboxymethylated): T2 sequence

[9] = target: T6, synthetic acceptor peptide Arg-Thr-Pro-Pro-Pro (RTPPP)
T6 sequence (peptide): RTPPP

[10] = target: T1, synthetic acceptor peptide Arg-Ser-Pro-Pro-Pro (RSPPP); remark: listed apart in the source
[11] = target: synthetic acceptor peptide Pro-Pro-Ala-D-Ser-Thr-D-Ser-Ala-Pro-Gly (PPAdSTdSAPG); remark: listed apart in the source

B1: UDP-GalNAc:polypeptide N-acetylgalactosaminyltransferase purified from bovine colostrum (enzyme)
chain: GLPAGDVLEPVQKPHEGPGEMGKPVVIPKEDQEKMKEMFKINQFNLMASEMIALNRSLPDVRLEGCKTKVYPDNLPTTSVVIVFHNEAWSTLLRTVHSVINRSPRHMLEEIVLVDDASERDFLKRPLESYVKKLKVPVHVIRMEQRSGLIRARLKGAAVSKGQVITFLDAHCECTVGWLEPLLARIKHDRKTVVCPIIDVISDDTFEYMAGSDMTYGGFNWKLNFRWYPVPQREMDRRKGDRTLPVRTPTMAGGLFSIDRDYFQEIGTYDAGMDIWGGENLEISFRIWQCGGTLEIVTCSHVGHVFRKATPYTFPGGTGQIINKNNRRLAEVWMDEFKNFFYIISPGVTKVDYGDISSRLGLRHKLQCRPFSWYLENIYPDSQIPRHYFSLGEIRNVETNQCLDNMARKENEKVGIFNCHGMGGNQVFSYTANKEIRTDDLCLDVSKLNGPVTMLKCHHLKGNQLWEYDPVKLTLQHVNSNQCLDKATDEDSQVPSIRDCSGSRSQQWLLRNVTLPEIF
modifications: native glycoprotein (peptide N-glycosidase F shifts it by approximately 6 kDa)
[1]
  Product formed: 0.67 nmol/min/mg
[2]
  Product formed: 2 nmol/min/mg
[3]
  Product formed: < 0.1 nmol/min/mg
[4]
  Product formed: 0.6 nmol/min/mg
[5]
  Product formed: < 0.1 nmol/min/mg
[6]
  Product formed: < 0.1 nmol/min/mg
[7]
  Product formed: < 0.1 nmol/min/mg
Myelin basic protein
  Product formed: 22.2 nmol/min/mg
[8]
  Product formed: 3.3 nmol/min/mg
[9]
  Km: 3.3 mM
  Vmax/Km: 183 M⁻¹ s⁻¹
[10]
  Vmax/Km: 0.4 M⁻¹ s⁻¹
[11]
  Vmax/Km: 1.2 M⁻¹ s⁻¹
